Bridge positions count the residues as written; N and C are the ends. Ends that are not written are not given here.
T1: APMA-activated MMP-2 (Homo sapiens, UniProt P08253)
T1 construct: endogenous in cells; host or cells: human gingival fibroblasts (serum-free culture medium)
T1 sequence (P08253 110-660): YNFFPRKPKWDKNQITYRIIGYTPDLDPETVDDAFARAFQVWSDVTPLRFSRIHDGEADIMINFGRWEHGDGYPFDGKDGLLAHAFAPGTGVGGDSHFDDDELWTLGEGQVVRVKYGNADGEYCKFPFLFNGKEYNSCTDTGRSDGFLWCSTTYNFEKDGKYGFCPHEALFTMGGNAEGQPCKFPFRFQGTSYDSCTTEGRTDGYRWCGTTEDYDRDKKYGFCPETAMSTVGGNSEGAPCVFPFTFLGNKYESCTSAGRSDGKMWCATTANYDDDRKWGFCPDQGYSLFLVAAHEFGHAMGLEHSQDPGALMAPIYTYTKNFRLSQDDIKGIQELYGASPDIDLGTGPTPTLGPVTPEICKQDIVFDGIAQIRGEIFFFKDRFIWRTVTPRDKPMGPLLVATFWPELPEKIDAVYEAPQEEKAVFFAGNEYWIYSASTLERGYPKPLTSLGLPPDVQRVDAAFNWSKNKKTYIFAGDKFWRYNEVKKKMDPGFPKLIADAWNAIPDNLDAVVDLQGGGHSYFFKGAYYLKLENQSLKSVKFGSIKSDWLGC

T2: proMMP-2 (Homo sapiens, UniProt P08253)
T2 construct: endogenous in cells; host or cells: human gingival fibroblasts (serum-free culture medium)
T2 sequence (P08253 30-660 limits assumed): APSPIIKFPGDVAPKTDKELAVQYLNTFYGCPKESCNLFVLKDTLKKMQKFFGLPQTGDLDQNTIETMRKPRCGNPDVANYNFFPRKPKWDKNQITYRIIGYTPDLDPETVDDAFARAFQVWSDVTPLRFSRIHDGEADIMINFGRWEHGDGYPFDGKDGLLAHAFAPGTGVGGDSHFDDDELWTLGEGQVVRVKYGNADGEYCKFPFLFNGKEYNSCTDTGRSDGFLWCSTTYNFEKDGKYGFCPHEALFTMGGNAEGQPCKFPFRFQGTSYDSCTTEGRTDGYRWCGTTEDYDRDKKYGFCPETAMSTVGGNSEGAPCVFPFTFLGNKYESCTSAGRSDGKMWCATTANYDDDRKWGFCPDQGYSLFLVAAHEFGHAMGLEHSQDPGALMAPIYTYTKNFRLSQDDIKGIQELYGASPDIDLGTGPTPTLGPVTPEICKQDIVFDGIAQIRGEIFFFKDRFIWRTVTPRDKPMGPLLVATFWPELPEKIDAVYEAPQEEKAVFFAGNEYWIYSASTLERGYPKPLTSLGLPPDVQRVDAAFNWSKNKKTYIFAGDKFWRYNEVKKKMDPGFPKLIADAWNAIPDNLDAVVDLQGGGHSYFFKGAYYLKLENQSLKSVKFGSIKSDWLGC

T3: proMMP-2 (human, UniProt P08253 30-660)
T3 sequence (looked up): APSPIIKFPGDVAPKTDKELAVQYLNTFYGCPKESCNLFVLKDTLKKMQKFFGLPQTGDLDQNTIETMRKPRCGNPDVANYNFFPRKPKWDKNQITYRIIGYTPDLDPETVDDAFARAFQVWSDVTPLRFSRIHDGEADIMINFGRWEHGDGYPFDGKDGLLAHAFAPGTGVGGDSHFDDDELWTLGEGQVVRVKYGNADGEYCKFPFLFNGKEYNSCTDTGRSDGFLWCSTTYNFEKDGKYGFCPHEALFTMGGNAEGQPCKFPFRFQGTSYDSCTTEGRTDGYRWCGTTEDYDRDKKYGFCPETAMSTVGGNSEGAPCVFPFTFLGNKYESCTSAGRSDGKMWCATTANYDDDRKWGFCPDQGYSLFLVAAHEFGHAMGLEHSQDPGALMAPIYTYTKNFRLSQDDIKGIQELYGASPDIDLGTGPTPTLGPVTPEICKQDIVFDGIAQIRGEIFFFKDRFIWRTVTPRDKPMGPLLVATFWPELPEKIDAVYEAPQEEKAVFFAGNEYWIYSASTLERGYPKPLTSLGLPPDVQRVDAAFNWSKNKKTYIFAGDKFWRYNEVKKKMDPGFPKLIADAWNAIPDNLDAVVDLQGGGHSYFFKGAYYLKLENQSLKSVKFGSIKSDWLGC

T4: APMA-activated MMP-2 (human, UniProt P08253 30-660)
T4 sequence (looked up): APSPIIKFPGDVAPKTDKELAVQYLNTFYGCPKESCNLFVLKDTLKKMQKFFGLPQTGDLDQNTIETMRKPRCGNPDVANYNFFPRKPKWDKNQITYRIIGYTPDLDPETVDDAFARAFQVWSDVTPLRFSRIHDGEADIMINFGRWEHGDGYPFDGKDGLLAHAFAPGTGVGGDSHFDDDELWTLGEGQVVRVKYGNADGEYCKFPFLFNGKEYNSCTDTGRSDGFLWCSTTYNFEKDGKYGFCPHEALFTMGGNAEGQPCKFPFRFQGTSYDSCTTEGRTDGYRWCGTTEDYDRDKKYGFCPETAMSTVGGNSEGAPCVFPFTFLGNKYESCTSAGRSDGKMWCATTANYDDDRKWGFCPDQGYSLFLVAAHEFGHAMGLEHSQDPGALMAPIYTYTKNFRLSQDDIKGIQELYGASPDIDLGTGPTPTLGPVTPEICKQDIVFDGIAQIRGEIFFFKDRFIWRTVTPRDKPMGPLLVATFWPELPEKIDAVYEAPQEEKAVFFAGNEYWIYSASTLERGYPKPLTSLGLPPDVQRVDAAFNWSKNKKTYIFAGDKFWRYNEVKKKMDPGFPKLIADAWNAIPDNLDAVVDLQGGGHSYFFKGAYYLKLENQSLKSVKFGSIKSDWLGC


What was measured:
APMA-activated MMP-2 [1] = molecular target: T1, APMA-activated MMP-2; assay: [125I]-gelatin degradation by APMA-activated MMP-2; assay type: biochemical; settings: 10 μg/ml
Method: (§1) For the gelatin and casein degradation assays, purified MMP-2 and MMP-9 (50-100 ng) were first incubated for 60 min with various concentrations of the peptide inhibitors, after which a 21 kDa β-casein (52 μM) or [^125I]-gelatin substrate was added. After incubation for 2 h at 22 ° C., degradation of the casein was analyzed by SDS gel electrophoresis. The degradation of [^125I]-gelatin was determined by counting radioactivity in the supernatant after precipitation of undegraded gelatin with 20% trichloroacetic acid.
(§2) proMMP-2 was purified from serum-free culture medium of human gingival fibroblasts.

APMA-activated MMP-9 [2] = molecular target: T5, APMA-activated MMP-9 (Homo sapiens, UniProt P14780); assay: [125I]-gelatin degradation by APMA-activated MMP-9; assay type: biochemical; settings: 10 μg/ml (FIG. 2)
T5 construct: from tissue; host or cells: human neutrophils
T5 sequence (P14780 107-707 limits assumed): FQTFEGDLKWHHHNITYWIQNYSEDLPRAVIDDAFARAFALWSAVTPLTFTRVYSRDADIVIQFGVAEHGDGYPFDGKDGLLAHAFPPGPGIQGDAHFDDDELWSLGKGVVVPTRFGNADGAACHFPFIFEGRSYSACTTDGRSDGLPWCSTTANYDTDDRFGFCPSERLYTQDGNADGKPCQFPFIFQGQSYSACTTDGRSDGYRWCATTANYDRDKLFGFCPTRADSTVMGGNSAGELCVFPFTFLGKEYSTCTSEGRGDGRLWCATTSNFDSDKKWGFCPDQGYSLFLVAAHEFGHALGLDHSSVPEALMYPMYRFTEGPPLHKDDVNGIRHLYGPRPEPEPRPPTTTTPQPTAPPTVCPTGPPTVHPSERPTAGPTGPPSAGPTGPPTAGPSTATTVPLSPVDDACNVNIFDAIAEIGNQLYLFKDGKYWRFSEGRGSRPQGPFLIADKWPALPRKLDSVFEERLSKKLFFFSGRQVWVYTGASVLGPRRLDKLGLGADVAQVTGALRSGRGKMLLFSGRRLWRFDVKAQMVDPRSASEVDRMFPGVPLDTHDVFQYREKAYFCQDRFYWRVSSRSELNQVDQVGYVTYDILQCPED
Method: (§3) ProMMP-9 was purified from human neutrophils and activated with aminophenyl mercuric acetate (APMA) essentially as described by Hibbs et al. (1985). For the selection of MMP-9 binding phage, APMA-activated MMP-9 was coated on microtiter wells overnight at 4° C. using a concentration of 1 μg/ml, after which the […] were saturated with 5 % bovine serum albumin. In the first panning, the library was incubated overnight at 4° C. in 50 mM Tris-HCl/0.1 M NaCl buffer (pH 7.5) (TBS) containing 1% bovine serum albumin, and after extensive washing the bound phage were eluted with low pH buffer. In the subsequent pannings, the amplified phage were allowed to bind for 1 h at 22° C. […] The bound phage were quantitated by adding 50 ng per well of anti-M13 antibody (Pharmacia, Uppsala, Sweden) labeled with an Europium-chelate (Wallac Ltd., Turku, Finland). After incubation for 45 min followed by washing, the fluorescence was measured with 1230 Arcus fluorometer (Wallac Ltd., Turku, Finland).
(§4) For the gelatin and casein degradation assays, purified MMP-2 and MMP-9 (50-100 ng) were first incubated for 60 min with various concentrations of the peptide inhibitors, after which a 21 kDa β-casein (52 μM) or [^125I]-gelatin substrate was added. After incubation for 2 h at 22 ° C., degradation of the casein was analyzed by SDS gel electrophoresis. […]

proMMP-9 [3] = molecular target: T6, proMMP-9 (Homo sapiens, UniProt P14780); assay: [125I]-gelatin degradation by proMMP-9 (autoactivating); assay type: biochemical; settings: 10 μg/ml (FIG. 2)
T6 construct: from tissue; host or cells: human neutrophils
T6 sequence (P14780 20-707 limits assumed): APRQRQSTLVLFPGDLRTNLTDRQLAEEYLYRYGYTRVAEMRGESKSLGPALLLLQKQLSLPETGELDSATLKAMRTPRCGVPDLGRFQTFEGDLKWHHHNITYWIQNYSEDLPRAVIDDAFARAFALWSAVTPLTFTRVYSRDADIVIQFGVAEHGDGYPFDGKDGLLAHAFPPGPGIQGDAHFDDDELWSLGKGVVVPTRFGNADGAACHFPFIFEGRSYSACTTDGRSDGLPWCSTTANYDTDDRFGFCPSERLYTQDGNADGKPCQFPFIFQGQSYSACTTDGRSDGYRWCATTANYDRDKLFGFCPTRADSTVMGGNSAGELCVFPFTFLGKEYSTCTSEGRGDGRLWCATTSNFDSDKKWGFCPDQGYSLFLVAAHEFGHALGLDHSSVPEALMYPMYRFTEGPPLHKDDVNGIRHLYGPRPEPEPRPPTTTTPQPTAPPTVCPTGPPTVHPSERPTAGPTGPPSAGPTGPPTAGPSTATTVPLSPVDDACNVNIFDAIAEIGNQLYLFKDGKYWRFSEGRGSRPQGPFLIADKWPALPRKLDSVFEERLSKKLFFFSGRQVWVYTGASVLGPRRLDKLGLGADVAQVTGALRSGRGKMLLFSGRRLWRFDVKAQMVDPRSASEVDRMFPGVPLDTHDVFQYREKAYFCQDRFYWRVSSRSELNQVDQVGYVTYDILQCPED
Method: as §3, §4

proMMP-2 [4] = molecular target: T2, proMMP-2; assay: [125I]-gelatin degradation by proMMP-2; assay type: biochemical; settings: 10 μg/ml
Method: as §1, §2

proMMP-2 [5] = molecular target: T3, proMMP-2; assay: cell-based or functional assay
APMA-activated MMP-2 [6] = molecular target: T4, APMA-activated MMP-2; assay: cell-based or functional assay
proMMP-9 [7] = molecular target: T7, proMMP-9 (human, UniProt P14780 20-707); assay: phage binding (attachment) assay
T7 construct: also called 92 kDa proMMP-9
T7 sequence (P14780 20-707): as the sequence (P14780 20-707 limits assumed) above

APMA-activated MMP-9 [8] = molecular target: APMA-activated MMP-9 (human, UniProt P14780 94-707); assay: cell-based or functional assay

| Molecule | IC50, β-casein degradation (SDS-PAGE) (proMMP-2 [5]) | IC50, β-casein degradation (SDS-PAGE) (APMA-activated MMP-2 [6]) | binding result (proMMP-9 [7]) | other results |
| --- | --- | --- | --- | --- |
| linear CRRHWGFEFC: linearized version of CRRHWGFEFC prepared by reducing and alkylating the cysteine residues (also: cysteines reduced and alkylated, alkylating agent not given here) | – | – | – | gelatinolysis by APMA-activated MMP-2 (APMA-activated MMP-2 [1]): virtually inactive; inhibitory activity against APMA-activated MMP-9 gelatinolysis (APMA-activated MMP-9 [2]): loss of inhibitory activity; inhibitory activity against proMMP-9 gelatinolysis (proMMP-9 [3]): loss of inhibitory activity; gelatinolysis by proMMP-2 (proMMP-2 [4]): virtually inactive |
| CTTHWGFTLC (disulfide 1-10 (inferred)) [cyclic CTTHWGFTLC synthetic peptide] | 5 µg/mL | ~5 µg/mL | – | – |
| CRRHWGFEFC (not shown: phage coat protein to which the peptide is fused) [phage clone displaying CRRHWGFEFC (from the CX9 library)] | – | – | no binding | – |
| CSLHWGFWWC (not shown: phage coat protein to which the peptide is fused) [phage clone displaying CSLHWGFWWC (from the CX9 library)] | – | – | no binding | – |
| CRRHWGFEFC (disulfide 1-10 (inferred)) [cyclic CRRHWGFEFC synthetic peptide] | 25 µg/mL | ~25 µg/mL | – | IC50, [125I]-gelatin degradation assay (APMA-activated MMP-9 [8]): ~10 µg/mL |

From patent US6624144B1, “Matrix metalloproteinase inhibitors and down-regulators” (CTT Cancer Targeting Technologies Oy, priority 1998, dated 2003)
